Assay [1] concerns the target T1, rhCA-IX ECD (Homo sapiens, UniProt Q16790). The experiment in a line: Reverse Phase Protein Array (RPPA). It counts as binding.
Assay [2] has as its target T1, rhCA-IX ECD. It counts as biochemical. The text has this:
To determine whether these mAbs can inhibit the enzyme activity of the rhCA-IX ECD protein, we used an activity assay in which 4-Nitrophenyl acetate (4-NPA) is used as a substrate. […]

Setting [3] is: hybridoma-derived mAb, 1 μM rhCA-IX ECD dimer, mAb:rhCA-IX ECD 4:1.

We go through one molecule from US20210238302A1, “HIGH AFFINITY MONOCLONAL ANTIBODIES (MABS) AGAINST CELL SURFACE EXPRESSED HUMAN CARBONIC ANHYDRASE IX (HCA-IX), AND USES THEREOF” (NATIONAL RESEARCH COUNCIL OF CANADA, priority 2018, published 2021).

Where “and” joins values, the source holds several entries; their conditions need not be identical. Equal values may be shown once. Read-outs that look alike come from different tables or passages of the source.

B1: 9B6: mouse IgG2b monoclonal antibody inhibiting hCA-IX catalytic activity; SEQ ID NO.14 and 18; hybridoma-derived and recombinant (SEQ ID NO. 24 and 25) (antibody, V domains shown)
VL: DIVLTQSPSSLAVSLGQRATISCKASQSVDYDGNSYMNWFQQKPGQPPKLLIYEASSLESGIPARISGSGSGTDFTLNIHPVEEEDAATYYCQQSYEGPYTFGGGTKLEIK
VH: QVQLQQPGAELVKPGASVKLSCKASGYIFTTKWINWVKQRPGQGLEWIGNIYPGSSNTYYNEKFKNKATLTVDKSSNTAHLQLSSLTSEDSAVYYCARGIANWGQGTPVTVSA
In the case of B1, in the assay with rhCA-IX ECD [1], the “Antigen in protein mixture Denatured (D)” value is listed as 1.74, the “Antigen in protein mixture Native (C)” value came out at 5.79, the mAb binding specificity entry was “rhCA-IX” and the “preference for native or denatured rhCA-IX ECD” value was “slightly increased preference for the denatured protein”. For the same molecule, the “Ratio (A)/(B) (Possibly epitope related)” value with rhCA-IX ECD [1] (native/denatured purified antigen) is on record as 0.68. Besides, in the assay with rhCA-IX ECD [1] (non-purified hybridoma mAb), the “Purified Antigen Denatured (B)” value amounted to 21.55 and the “Purified Antigen Native (A)” value is 14.75. Besides, in the assay with rhCA-IX ECD [2], the “% rhCA-IX ECD Inhibition” value is 42.59%. Moreover, in the assay with rhCA-IX ECD [2] (setting [3]), the “% rhCA-IX ECD Activity” value was determined as 59.25%; the “% rhCA-IX ECD Inhibition” value was 40% and 40.75%. For the same molecule, in the assay with rhCA-IX ECD [2] (hybridoma-derived mAb, mAb:rhCA-IX ECD 4:1), the Comments entry is recorded as “Inhibition”. The “rhCA-IX ECD enzyme activity inhibition” value with rhCA-IX ECD [2] (recombinant mAbs and Fabs, 0.5 μM each, rhCA-IX ECD 0.5 μM dimer, 4-NPA) is 40% and 28%. In the assay with rhCA-IX ECD [2] (replicate 1 of % rhCA-IX ECD activity, hybridoma-derived mAb, mAb:rhCA-IX ECD 4:1), this molecule returned a Data1 of 59.25. This molecule also yielded a Data2 with rhCA-IX ECD [2] (replicate 2 of % rhCA-IX ECD activity, hybridoma-derived mAb, mAb:rhCA-IX ECD 4:1) of 55.57.
